{
  "source": "paper PMC9651861",
  "about": "(Science Advances, 2022)",
  "binders": {"B1": {"name": "DesAb-HSA-P2 (VHH)", "VHH": "EVQLEESGGGLVQPGGSLRLSCAASGFNIKDTYIGWVRQAPGKGEEWVASIYPTSGYTRYADSVKGRFTISADTSKNTAYLQMNSLRAEDTAVYYCAAGSAQAGNAEEAEEEFDYWGQGTLVTVSS"}, "B2": {"name": "DesAb-Tryp (VHH)", "VHH": "EVQLEESGGGLVQPGGSLRLSCAASGFNIKDTYIGWVRQAPGKGEEWVASIYPTSGYTRYADSVKGRFTISADTSKNTAYLQMNSLRAEDTAVYYCAAGSQSGYHFEEFDYWGQGTLVTVSS"}, "B3": {"name": "DesAb-HSA-D3 (VHH)", "VHH": "EVQLQESGGGLVQAGGSLRLSCAASGELYALISMGWFRQAPGKEREFVAAISRNGDNTYYTDSVKGRFTISRDNAKNTVELQMNSLKPEDTAVYYCAADKFASPDGSVTIMTNEYDYWGQGTQVTVSD"}, "B4": {"name": "DesAb-HSA-P1 (VHH)", "VHH": "EVQLEESGGGLVQPGGSLRLSCAASGFNIKDTYIGWVRQAPGKGEEWVASIYPTSGYTRYADSVKGRFTISADTSKNTAYLQMNSLRAEDTAVYYCAAGSIQKSLQTAESILEEFDYWGQGTLVTVSS"}, "B5": {"name": "DesAb-RBD-C1 (VHH)", "VHH": "EVQLEESGGGLVQPGGSLRLSCAASGFNIKDTYIGWVRQAPGKGEEWVASIYPTSGYTRYADSVKGRFTISADTSKNTAYLQMNSLRAEDTAVYYCAAGSGSSATEVYEEFDYWGQGTLVTVSS"}, "B6": {"name": "Nb.B201 (VHH)", "VHH": "QVQLQESGGGLVQAGGSLRLSCAASGYISDAYYMGWYRQAPGKEREFVATITHGTNTYYADSVKGRFTISRDNAKNTVYLQMNSLKPEDTAVYYCAVLETRSYSFRYWGQGTQVTVSS", "notes": "also called yeast display-derived anti-HSA nanobody"}, "B7": {"name": "DesAb-RBD-C2 (VHH)", "VHH": "EVQLEESGGGLVQPGGSLRLSCAASGFNIKDTYIGWVRQAPGKGEEWVASIYPTSGYTRYADSVKGRFTISADTSKNTAYLQMNSLRAEDTAVYYCAAGSVVADLSVEEFDYWGQGTLVTVSS"}},
  "conditions_in_all_cases": "both partners purified",
  "key": {"[1]": {"target": "T1, human serum albumin (Homo sapiens, UniProt P02768)", "T1 construct": "also called HSA", "test": "BLI; HSA (4 μM) loaded on APS sensors; DesAbs at 1 μM, 500 nM and 250 nM (Nb.B201 at 800 and 400 nM); 170 mM NaCl, 50 mM tris-HCl, 10 mM MgCl2 pH 7.4; 25°C; global fit, Kd = Koff/Kon"}, "[2]": {"target": "pancreatic bovine trypsin (Bos taurus, UniProt P00760)", "sequence (P00760 24-246)": "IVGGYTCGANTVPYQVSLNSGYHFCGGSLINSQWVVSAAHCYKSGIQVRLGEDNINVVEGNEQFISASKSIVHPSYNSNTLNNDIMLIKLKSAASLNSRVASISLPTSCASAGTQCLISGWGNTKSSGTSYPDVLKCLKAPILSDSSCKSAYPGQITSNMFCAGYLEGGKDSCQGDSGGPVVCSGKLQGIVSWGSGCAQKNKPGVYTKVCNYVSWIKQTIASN", "test": "BLI; His-tagged DesAb (7.5 μM) loaded to saturation on Ni-NTA sensors, trypsin in solution; 170 mM NaCl, 50 mM tris-HCl, 10 mM MgCl2 pH 7.4; 25°C"}, "[3]": {"target": "T1, human serum albumin", "test": "BLI; HSA (4 μM) loaded on APS sensors; DesAbs at 1 μM, 500 nM and 250 nM (Nb.B201 at 800 and 400 nM); 170 mM NaCl, 50 mM tris-HCl, 10 mM MgCl2 pH 7.4; 25°C; global fit, Kd = Koff/Kon", "remark": "listed apart in the source"}, "[4]": {"target": "T2, SARS-CoV-2 Spike Glycoprotein (S1) His-Tagged RBD (SARS-CoV-2, UniProt P0DTC2)", "T2 construct": "source: bought: The Native Antigen Company (REC31849), produced in HEK293 cells", "test": "BLI"}, "[5]": {"target": "T1, human serum albumin", "test": "BLI"}, "[6]": {"target": "T2, SARS-CoV-2 Spike Glycoprotein (S1) …", "test": "BLI", "remark": "listed apart in the source"}, "[7]": {"target": "T1, human serum albumin", "test": "BLI", "remark": "listed apart in the source"}},
  "data": [
    {"binder": "B1", "values": [
      {"measurement": "Kd", "setting": "[1]", "value": 380, "unit": "nM"}
    ]},
    {"binder": "B2", "values": [
      {"measurement": "Kd", "setting": "[2]", "value": 1800, "unit": "nM"},
      {"measurement": "binding result", "setting": "[3]", "value": "no binding (tested: 1 μM)"},
      {"measurement": "binding result", "setting": "[4]", "value": "no binding (tested: 4 μM)"}
    ]},
    {"binder": "B3", "values": [
      {"measurement": "Kd", "setting": "[5]", "value": 180, "unit": "nM"}
    ]},
    {"binder": "B4", "values": [
      {"measurement": "Kd", "setting": "[5]", "value": 120, "unit": "nM"}
    ]},
    {"binder": "B5", "values": [
      {"measurement": "Kd", "setting": "[6]", "value": 210, "unit": "nM"}
    ]},
    {"binder": "B6", "values": [
      {"measurement": "binding result", "setting": "[7]", "value": "binds"}
    ]},
    {"binder": "B7", "values": [
      {"measurement": "Kd", "setting": "[6]", "value": 130, "unit": "nM"}
    ]}
  ]
}
